Tests used:
[1] = target: T1, BCMA-Fc antigen (R&D Systems) (UniProt Q02223 1-54); test: flow cytometry; BCMA-Fc staining of CAR-transduced JNL cells
T1 construct: also called BCMA fc fusion protein (R&D Systems, cat #193-BC-050); recombinant BCMA-Fc; not shown: Fc portion of the bought fusion protein
T1 sequence (looked up): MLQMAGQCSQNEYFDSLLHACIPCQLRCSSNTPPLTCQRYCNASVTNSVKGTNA
Description: Jurkat-NFAT-luciferase (JNL) cells transduced with BCMA CAR constructs were evaluated for activation in response to BCMA-expressing target cell lines. Small-scale viral supernatant samples were generated in HEK293T cells for transduction of JNL cells. On Day 3 following transduction, BCMA CAR-transduced JNL cells were incubated with target cells at an effector-to-target (E:T) ratio of 6:1. Target cell lines were: K562-BCMA (engineered to stably express BCMA), K562 (parental line), and BCMA positive multiple myeloma cell lines, NCI-H929 and RPMI 8226. JNL activation was measured using Bright-Glo substrate (Promega) on Day 4. CAR expression on transduced JNL was assessed on Day 7 with BCMA-Fc antigen and Biotin-Protein L reagent (Table 21).

[2] = target: T2, human BCMA (B-cell maturation antigen) on cells (human, UniProt Q02223 1-184); test: cell-based or functional assay
T2 sequence (looked up): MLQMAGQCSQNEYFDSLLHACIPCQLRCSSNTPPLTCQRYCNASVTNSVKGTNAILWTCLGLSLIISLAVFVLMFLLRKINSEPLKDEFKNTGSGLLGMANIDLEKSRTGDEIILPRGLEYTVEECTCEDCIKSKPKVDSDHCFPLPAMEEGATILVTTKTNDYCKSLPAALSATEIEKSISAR

B1: BCMA-2 CAR (139101) (other)
chain: QVQLQESGGGLVQPGGSLRLSCAASGFTFSSDAMTWVRQAPGKGLEWVSVISGSGGTTYYADSVKGRFTISRDNSKNTLYLQMNSLRAEDTAVYYCAKLDSSGYYYARGPRYWGQGTLVTVSSASGGGGSGGRASGGGGSDIQLTQSPSSLSASVGDRVTITCRASQSISSYLNWYQQKPGKAPKLLIYGASTLASGVPARFSGSGSGTHFTLTINSLQSEDSATYYCQQSYKRASFGQGTKVEIKTTTPAPRPPTPAPTIASQPLSLRPEACRPAAGGAVHTRGLDFACDIYIWAPLAGTCGVLLLSLVITLYCKRGRKKLLYIFKQPFMRPVQTTQEEDGCSCRFPEEEEGGCELRVKFSRSADAPAYKQGQNQLYNELNLGRREEYDVLDKRRGRDPEMGGKPRRKNPQEGLYNELQKDKMAEAYSEIGMKGERRRGKGHDGLYQGLSTATKDTYDALHMQALPPR
notes: also called UR96-08PA
Question: Which “% CAR+ (BCMA-Fc detection)” value [1] does the source give for B1 here?
Answer: 32%

B2: BCMA-4 CAR (139103) (other)
chain: QVQLVESGGGLVQPGRSLRLSCAASGFTFSNYAMSWVRQAPGKGLGWVSGISRSGENTYYADSVKGRFTISRDNSKNTLYLQMNSLRDEDTAVYYCARSPAHYYGGMDVWGQGTTVTVSSASGGGGSGGRASGGGGSDIVLTQSPGTLSLSPGERATLSCRASQSISSSFLAWYQQKPGQAPRLLIYGASRRATGIPDRFSGSGSGTDFTLTISRLEPEDSAVYYCQQYHSSPSWTFGQGTKLEIKTTTPAPRPPTPAPTIASQPLSLRPEACRPAAGGAVHTRGLDFACDIYIWAPLAGTCGVLLLSLVITLYCKRGRKKLLYIFKQPFMRPVQTTQEEDGCSCRFPEEEEGGCELRVKFSRSADAPAYKQGQNQLYNELNLGRREEYDVLDKRRGRDPEMGGKPRRKNPQEGLYNELQKDKMAEAYSEIGMKGERRRGKGHDGLYQGLSTATKDTYDALHMQALPPR
notes: also called B4; JF32-78IB
Question: B2 was tested. Which “% CAR+ (BCMA-Fc detection)” value [1] did it give?
Answer: 49.5%

Question: What about the “JNL binding assay, ratio to K562; K562-BCMA” value [2] of the same binder?
Answer: 4.47 ratio

Question: What about the “JNL binding assay, ratio to K562; NCI-H929” value [2] of the same binder?
Answer: 3.31 ratio

Question: And the “JNL binding assay, ratio to K562; RPMI 8226” value [2]?
Answer: 6.25 ratio

Question: And the “Proliferation CD3, ratio to no target; K562-BCMA” value [2]?
Answer: 7.37 ratio

Question: And the “Proliferation CD3, ratio to no target; KMS11-luc” value [2]?
Answer: 8.63 ratio

Question: What about the “Proliferation CD3, ratio to no target; NCI-H929” value [2] of the same binder?
Answer: 8.64 ratio

Question: What about the “Proliferation CD3, ratio to no target; RPMI 8226” value [2] of the same binder?
Answer: 8.14 ratio

Question: What about the “Proliferation CD4, ratio to no target; K562-BCMA” value [2] of the same binder?
Answer: 9.21 ratio

Question: And the “Proliferation CD4, ratio to no target; KMS11-luc” value [2]?
Answer: 8.6 ratio

Question: And the “Proliferation CD4, ratio to no target; NCI-H929” value [2]?
Answer: 9.86 ratio

Question: And the “Proliferation CD4, ratio to no target; RPMI 8226” value [2]?
Answer: 10.1 ratio

Question: And the “Proliferation CD8, ratio to no target; K562-BCMA” value [2]?
Answer: 5.66 ratio

Question: And the “Proliferation CD8, ratio to no target; KMS11-luc” value [2]?
Answer: 8.74 ratio

Question: And the “Proliferation CD8, ratio to no target; NCI-H929” value [2]?
Answer: 7.42 ratio

Question: What about the “Proliferation CD8, ratio to no target; RPMI 8226” value [2] of the same binder?
Answer: 6.19 ratio

B3: BCMA-7 CAR (139106) (other)
chain: EVQLVETGGGLVQPGGSLRLSCAVSGFALSNHGMSWVRRAPGKGLEWVSGIVYSGSTYYAASVKGRFTISRDNSRNTLYLQMNSLRPEDTAIYYCSAHGGESDVWGQGTTVTVSSASGGGGSGGRASGGGGSEIVMTQSPATLSVSPGERATLSCRASQSVSSKLAWYQQKPGQAPRLLMYGASIRATGIPDRFSGSGSGTEFTLTISSLEPEDFAVYYCQQYGSSSWTFGQGTKVEIKTTTPAPRPPTPAPTIASQPLSLRPEACRPAAGGAVHTRGLDFACDIYIWAPLAGTCGVLLLSLVITLYCKRGRKKLLYIFKQPFMRPVQTTQEEDGCSCRFPEEEEGGCELRVKFSRSADAPAYKQGQNQLYNELNLGRREEYDVLDKRRGRDPEMGGKPRRKNPQEGLYNELQKDKMAEAYSEIGMKGERRRGKGHDGLYQGLSTATKDTYDALHMQALPPR
notes: also called QR91-12ZA
Question: Which “% CAR+ (BCMA-Fc detection)” value [1] does the source give for B3 here?
Answer: 30.4%

Question: What about the “JNL binding assay, ratio to K562; K562-BCMA” value [2] of the same binder?
Answer: 2.55 ratio

Question: And the “JNL binding assay, ratio to K562; NCI-H929” value [2]?
Answer: 2.36 ratio

Question: What about the “JNL binding assay, ratio to K562; RPMI 8226” value [2] of the same binder?
Answer: 2.77 ratio

Question: What about the “Proliferation CD3, ratio to no target; K562-BCMA” value [2] of the same binder?
Answer: 1.72 ratio

Question: What about the “Proliferation CD3, ratio to no target; KMS11-luc” value [2] of the same binder?
Answer: 1.71 ratio

Question: What about the “Proliferation CD3, ratio to no target; NCI-H929” value [2] of the same binder?
Answer: 1.8 ratio

Question: And the “Proliferation CD3, ratio to no target; RPMI 8226” value [2]?
Answer: 1.62 ratio

Question: What about the “Proliferation CD4, ratio to no target; K562-BCMA” value [2] of the same binder?
Answer: 2.17 ratio

Question: What about the “Proliferation CD4, ratio to no target; KMS11-luc” value [2] of the same binder?
Answer: 1.96 ratio

Question: And the “Proliferation CD4, ratio to no target; NCI-H929” value [2]?
Answer: 2.23 ratio

Question: What about the “Proliferation CD4, ratio to no target; RPMI 8226” value [2] of the same binder?
Answer: 1.91 ratio

Question: And the “Proliferation CD8, ratio to no target; K562-BCMA” value [2]?
Answer: 1.08 ratio

Question: And the “Proliferation CD8, ratio to no target; KMS11-luc” value [2]?
Answer: 1.35 ratio

Question: And the “Proliferation CD8, ratio to no target; NCI-H929” value [2]?
Answer: 1.18 ratio

Question: And the “Proliferation CD8, ratio to no target; RPMI 8226” value [2]?
Answer: 1.19 ratio

B4: BCMA-11 CAR (139110) (other)
chain: QVQLVQSGGGLVKPGGSLRLSCAASGFTFSDYYMSWIRQAPGKGLEWVSYISSSGNTIYYADSVKGRFTISRDNAKNSLYLQMNSLRAEDTAVYYCARSTMVREDYWGQGTLVTVSSASGGGGSGGRASGGGGSDIVLTQSPLSLPVTLGQPASISCKSSESLVHNSGKTYLNWFHQRPGQSPRRLIYEVSNRDSGVPDRFTGSGSGTDFTLKISRVEAEDVGVYYCMQGTHWPGTFGQGTKLEIKTTTPAPRPPTPAPTIASQPLSLRPEACRPAAGGAVHTRGLDFACDIYIWAPLAGTCGVLLLSLVITLYCKRGRKKLLYIFKQPFMRPVQTTQEEDGCSCRFPEEEEGGCELRVKFSRSADAPAYKQGQNQLYNELNLGRREEYDVLDKRRGRDPEMGGKPRRKNPQEGLYNELQKDKMAEAYSEIGMKGERRRGKGHDGLYQGLSTATKDTYDALHMQALPPR
notes: also called UG65-93FB
Question: B4 was tested. Which “% CAR+ (BCMA-Fc detection)” value [1] did it give?
Answer: 42.7%

B5: BCMA-5 CAR (139104) (other)
chain: EVQLLETGGGLVQPGGSLRLSCAVSGFALSNHGMSWVRRAPGKGLEWVSGIVYSGSTYYAASVKGRFTISRDNSRNTLYLQMNSLRPEDTAIYYCSAHGGESDVWGQGTTVTVSSASGGGGSGGRASGGGGSEIVLTQSPATLSVSPGESATLSCRASQSVSSNLAWYQQKPGQAPRLLIYGASTRASGIPDRFSGSGSGTDFTLTISSLQAEDVAVYYCQQYGSSLTFGGGTKVEIKTTTPAPRPPTPAPTIASQPLSLRPEACRPAAGGAVHTRGLDFACDIYIWAPLAGTCGVLLLSLVITLYCKRGRKKLLYIFKQPFMRPVQTTQEEDGCSCRFPEEEEGGCELRVKFSRSADAPAYKQGQNQLYNELNLGRREEYDVLDKRRGRDPEMGGKPRRKNPQEGLYNELQKDKMAEAYSEIGMKGERRRGKGHDGLYQGLSTATKDTYDALHMQALPPR
notes: also called AR99-08FA
Question: Which results are given for B5?
Answer: % CAR+ (BCMA-Fc detection) [1]: 28.9%; JNL binding assay, ratio to K562; K562-BCMA [2]: 2.34 ratio; JNL binding assay, ratio to K562; NCI-H929 [2]: 2.34 ratio; JNL binding assay, ratio to K562; RPMI 8226 [2]: 2.4 ratio; Proliferation CD3, ratio to no target; K562-BCMA [2]: 1.62 ratio; Proliferation CD3, ratio to no target; KMS11-luc [2]: 1.61 ratio; Proliferation CD3, ratio to no target; NCI-H929 [2]: 1.72 ratio; Proliferation CD3, ratio to no target; RPMI 8226 [2]: 1.73 ratio; Proliferation CD4, ratio to no target; K562-BCMA [2]: 2.19 ratio; Proliferation CD4, ratio to no target; KMS11-luc [2]: 1.9 ratio; Proliferation CD4, ratio to no target; NCI-H929 [2]: 2.23 ratio; Proliferation CD4, ratio to no target; RPMI 8226 [2]: 2.15 ratio; Proliferation CD8, ratio to no target; K562-BCMA [2]: 0.99 ratio; Proliferation CD8, ratio to no target; KMS11-luc [2]: 1.27 ratio; Proliferation CD8, ratio to no target; NCI-H929 [2]: 1.11 ratio; Proliferation CD8, ratio to no target; RPMI 8226 [2]: 1.25 ratio

B6: BCMA-4NP tool CAR (other)
chain: QVQLVQSGAEVKKPGSSVKVSCKASGGTFSNYWMHWVRQAPGQGLEWMGATYRGHSDTYYNQKFKGRVTITADKSTSTAYMELSSLRSEDTAVYYCARGAIYNGYDVLDNWGQGTLVTVSSGGGGSGGGGSGGGGSGGGGSDIQMTQSPSSLSASVGDRVTITCSASQDISNYLNWYQQKPGKAPKLLIYYTSNLHSGVPSRFSGSGSGTDFTLTISSLQPEDFATYYCQQYRKLPWTFGQGTKLEIKR
Question: For B6, which “% CAR+ (BCMA-Fc detection)” value [1] is on record?
Answer: 28.3%

B7: BCMA-3 CAR (139102) (other)
chain: QVQLVQSGAEVKKPGASVKVSCKASGYTFSNYGITWVRQAPGQGLEWMGWISAYNGNTNYAQKFQGRVTMTRNTSISTAYMELSSLRSEDTAVYYCARGPYYYYMDVWGKGTMVTVSSASGGGGSGGRASGGGGSEIVMTQSPLSLPVTPGEPASISCRSSQSLLYSNGYNYVDWYLQKPGQSPQLLIYLGSNRASGVPDRFSGSGSGTDFKLQISRVEAEDVGIYYCMQGRQFPYSFGQGTKVEIKTTTPAPRPPTPAPTIASQPLSLRPEACRPAAGGAVHTRGLDFACDIYIWAPLAGTCGVLLLSLVITLYCKRGRKKLLYIFKQPFMRPVQTTQEEDGCSCRFPEEEEGGCELRVKFSRSADAPAYKQGQNQLYNELNLGRREEYDVLDKRRGRDPEMGGKPRRKNPQEGLYNELQKDKMAEAYSEIGMKGERRRGKGHDGLYQGLSTATKDTYDALHMQALPPR
notes: Chimeric antigen receptor; also called KR98-03KA
Question: With B7 as the binder, how does the “% CAR+ (BCMA-Fc detection)” value [1] read?
Answer: 0%
